Reference: article PMC2897852 (PLoS ONE, 2010)

B1: His-ClpX (M. tuberculosis ClpX, pRD21) (natural protein)
chain: not shown
notes: also called his-clpXTB; recombinant His-ClpX fusion protein
B2: purified FtsZ (M. tuberculosis) as used in the solid-phase binding and polymerization assays (natural protein)
chain: MTPPHNYLAVIKVVGIGGGGVNAVNRMIEQGLKGVEFIAINTDAQALLMSDADVKLDVGRDSTRGLGAGADPEVGRKAAEDAKDEIEELLRGADMVFVTAGEGGGTGTGGAPVVASIARKLGALTVGVVTRPFSFEGKRRSNQAENGIAALRESCDTLIVIPNDRLLQMGDAAVSLMDAFRSADEVLLNGVQGITDLITTPGLINVDFADVKGIMSGAGTALMGIGSARGEGRSLKAAEIAINSPLLEASMEGAQGVLMSIAGGSDLGLFEINEAASLVQDAAHPDANIIFGTVIDDSLGDEVRVTVIAAGFDVSGPGRKPVMGETGGAHRIESAKAGKLTSTLFEPVDAVSVPLHTNGATLSIGGDDDDVDVPPFMRR
notes: also called FtsZTB

Columns and labels:
[1] = target: the molecule itself; experiment: SEC; purified ClpX on a Superdex 200 10/300 GL column; data not shown
[2] = target: B1; experiment: ELISA; details: both partners purified

Binder | stoichiometry N [1] | binding result [2]
B1 | 6 | –
B2 | – | binds
